These are literature values, as cited in publication PMC4854875.

The target in the series is UBE2T (Homo sapiens) (UniProt Q9NPD8).
UniProt Q9NPD8, sequence (Q9NPD8 whole entry): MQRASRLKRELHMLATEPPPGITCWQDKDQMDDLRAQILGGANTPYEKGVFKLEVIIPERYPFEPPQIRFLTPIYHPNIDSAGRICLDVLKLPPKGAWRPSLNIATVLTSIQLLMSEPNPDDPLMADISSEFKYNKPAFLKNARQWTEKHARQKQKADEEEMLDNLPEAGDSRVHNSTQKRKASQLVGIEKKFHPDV

Turning to FANCL (from UniProt Q9NW38), the Kd was 454 nM.

As a reminder, the Kd is the free concentration of one partner at which half of the binding sites on the other are occupied at equilibrium, for simple one-to-one binding.
